From article doi:10.1101/2021.03.04.434028 (bioRxiv, 2021) come the findings set out here.

Read-outs that look alike come from different tables or passages of the source.

B4: HigA antitoxin of the His6-HigBHigA complex (natural protein, Proteus vulgaris (plasmid Rts1), UniProt Q7A224 1-104, looked up)
chain: MRQFKVSHPGEMIARDLEDMGVSGRRFAHNIGVTPATVSRLLAGKTALTPSLSIRIAAALGSTPEFWLRLQSNYDLRQLENQIDTSGIVLYGESNEQQQNAQEH

Data set [1] has as its system HigB (of wild-type HigB2HigA2 complex);HigA (of wild-type HigB2HigA2 complex) (Proteus vulgaris (plasmid Rts1);Proteus vulgaris (plasmid Rts1)). As to the kind of experiment: EMSA. The settings on record: binding buffer pH not stated ([…].
For data set [2], the target named is B4. As to the kind of experiment: crystal structure.
Data set [3] addresses T1, HigA antitoxin of the complexes analysed by size exclusion chromatography (Proteus vulgaris (plasmid Rts1), UniProt Q7A224 1-104).
T1 sequence (looked up): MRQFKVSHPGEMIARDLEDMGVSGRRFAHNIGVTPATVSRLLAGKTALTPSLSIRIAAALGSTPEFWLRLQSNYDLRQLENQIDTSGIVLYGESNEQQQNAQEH
Kind of data set: SEC. A general note: SEC sorts molecules by how far they enter the pores of the column.

Data set [4] deals with the molecule itself. Kind of data set: crystal structure.
Data set [5] deals with the molecule itself. Kind of data set: crystal structure. The source holds these as a separate data set.

With O1(scrambled)-O2 (O2 only), in data set [1], the Kd (as a rule, a measure of binding affinity in units of concentration) came to 240 nM.
Turning to O1-O2(scrambled) (O1 only), in data set [1], the Kd amounted to 360 nM.

B1: HigB toxin of the His6-HigBHigA complex (natural protein)
chain: MIKSFKHKGLKLLFEKGVTSGVPAQDVDRINDRLQAIDTATEIGELNRQIYKLHPLKGDREGYWSITVRANWRITFQFINGDAYILNYEDYH
Take B1: the binding result in data set [2] is listed as “binds”.

B2: Wild-type HigB toxin of the HigB2HigA2 complex analysed by size exclusion chromatography (natural protein)
chain: MIKSFKHKGLKLLFEKGVTSGVPAQDVDRINDRLQAIDTATEIGELNRQIYKLHPLKGDREGYWSITVRANWRITFQFINGDAYILNYEDYH
With B2, the binding result in data set [3] is recorded as “binds”.

B3: HigA antitoxin with C-terminal His6 tag of the HigBHigA-His6 complex (selenomethionine-derivatized) (natural protein, Proteus vulgaris (plasmid Rts1), UniProt Q7A224 1-104, looked up)
chain: MRQFKVSHPGEMIARDLEDMGVSGRRFAHNIGVTPATVSRLLAGKTALTPSLSIRIAAALGSTPEFWLRLQSNYDLRQLENQIDTSGIVLYGESNEQQQNAQEH
modifications: selenomethionine-derivatized
Consider B3, for which the stoichiometry N – broadly, the number of molecules, sites or subunits per partner or assembly – in data set [4] amounted to 2.
Consider B4, for which the “stoichiometry N” value in data set [5] stood at 2.

B5: HigB(L5ext), HigB with loop 5 extended by NGNG (natural protein)
chain: MIKSFKHKGLKLLFEKGVTSGVPAQDVDRINDRLQAIDTATEIGELNRQIYKLHPLKGDREGYWSITVRANWRITFQFINGDNGNGAYILNYEDYH
Regarding B5, the binding result in data set [3] was “binds”.
